From publication PMC3302758

Assays:
14-3-3ε = 14-3-3ε (UniProt P62258); test: CFTR IP, 14-3-3ε immunoblot; settings: reference: basal cells; sites S660,S670,S700,S712,S737,S753,S768,S795,S813
14-3-3β = 14-3-3β (UniProt P31946); test: CFTR IP, 14-3-3β immunoblot; settings: reference: basal cells; sites S660,S670,S700,S712,S737,S753,S768,S795,S813

Substance: CFTR (from UniProt P13569) forskolin 10 µM, 15 min
- fold change (14-3-3ε): 3.1 fold
- fold change (14-3-3β): 2.3 fold
